Data published in patent US20240374644A1.

Target: CD8 on peripheral blood mononuclear cells (human)
Test: flow cytometry on PBMCs, anti-GST antibody

Chain of CD8 on peripheral blood mononuclear cells (human) (P01732 22-235, chain 1 of 2): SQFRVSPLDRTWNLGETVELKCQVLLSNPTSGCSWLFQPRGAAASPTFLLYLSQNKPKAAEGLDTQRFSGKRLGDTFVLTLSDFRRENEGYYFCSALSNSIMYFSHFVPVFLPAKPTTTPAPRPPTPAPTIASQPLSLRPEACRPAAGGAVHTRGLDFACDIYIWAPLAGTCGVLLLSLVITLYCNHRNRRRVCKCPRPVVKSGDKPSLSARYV
Chain of CD8 on peripheral blood mononuclear cells (human) (P10966 22-210, chain 2 of 2, further chain): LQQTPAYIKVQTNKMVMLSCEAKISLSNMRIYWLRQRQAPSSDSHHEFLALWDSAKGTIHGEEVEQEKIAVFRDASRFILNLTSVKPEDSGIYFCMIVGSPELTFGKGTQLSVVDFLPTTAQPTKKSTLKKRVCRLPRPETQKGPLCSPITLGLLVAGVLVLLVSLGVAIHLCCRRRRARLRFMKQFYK

Substance: CD8 BiTE (K8Bi), anti-HERV-K 6H5 scFv linked to anti-CD8 (OKT8) scFv (bispecific antibody)
- percentage of peripheral blood mononuclear cells positive (anti-GST): 48.8 to 55.2%
